Assay results published in publication PMC9482650, “Quantitative fragmentomics allow affinity mapping of interactomes” (Nature Communications, 2022).

Columns and labels:
Test in all cases: holdup assay
Design in all cases: key: below the threshold = too weak to quantify, mostly under pKd 3.1 to 4
TJP1_2, Q07157 = molecular target: TJP1_2, Q07157
MAGI2_4, Q86UL8 = molecular target: MAGI2_4, Q86UL8
CASK, O14936 = molecular target: CASK, O14936
DFNB31_1, Q9P202 = molecular target: T1, DFNB31_1, Q9P202
T1 sequence (Q9P202 135-233, limits assumed, looked up): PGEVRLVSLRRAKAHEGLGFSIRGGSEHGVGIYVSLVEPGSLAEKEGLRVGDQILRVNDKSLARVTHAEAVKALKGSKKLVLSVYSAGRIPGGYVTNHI

DLG3_2, Q92796 = molecular target: T2, DLG3_2, Q92796
T2 sequence (Q92796 221-321, limits assumed, looked up): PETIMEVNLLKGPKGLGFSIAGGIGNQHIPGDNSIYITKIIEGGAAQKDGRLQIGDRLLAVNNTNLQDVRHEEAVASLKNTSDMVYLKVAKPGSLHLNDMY

Inadl_6, Q8NI35 = molecular target: Inadl_6, Q8NI35
APBA3_1, O96018 = molecular target: T3, APBA3_1, O96018
T3 sequence (O96018 389-490, limits assumed, looked up): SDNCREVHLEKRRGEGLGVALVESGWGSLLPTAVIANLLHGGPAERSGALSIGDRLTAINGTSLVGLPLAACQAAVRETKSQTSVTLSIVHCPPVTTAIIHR

Inadl_4, Q8NI35 = molecular target: Inadl_4, Q8NI35
PTPN13_1, Q12923 = molecular target: T4, PTPN13_1, Q12923
T4 sequence (Q12923 1088-1188, limits assumed, looked up): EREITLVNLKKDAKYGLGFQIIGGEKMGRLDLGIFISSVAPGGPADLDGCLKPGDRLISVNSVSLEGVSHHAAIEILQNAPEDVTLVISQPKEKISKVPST

FRMPD2_3, Q68DX3 = molecular target: FRMPD2_3, Q68DX3
MPP6, Q9NZW5 = molecular target: T5, MPP6, Q9NZW5
T5 sequence (Q9NZW5 125-219, limits assumed, looked up): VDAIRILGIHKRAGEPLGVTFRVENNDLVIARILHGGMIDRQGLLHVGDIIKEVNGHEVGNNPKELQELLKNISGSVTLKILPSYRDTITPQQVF

DLG1_2, Q12959 = molecular target: DLG1_2, Q12959
LAP2, Q96RT1 = molecular target: LAP2, Q96RT1
MPDZ_12, O75970 = molecular target: T6, MPDZ_12, O75970
T6 sequence (O75970 1857-1958, limits assumed, looked up): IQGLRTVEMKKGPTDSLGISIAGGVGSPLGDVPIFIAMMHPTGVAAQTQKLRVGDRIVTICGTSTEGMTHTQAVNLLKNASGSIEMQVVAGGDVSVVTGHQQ

PDZD7_3, Q9H5P4 = molecular target: T7, PDZD7_3, Q9H5P4
T7 sequence (Q9H5P4 857-944, limits assumed, looked up): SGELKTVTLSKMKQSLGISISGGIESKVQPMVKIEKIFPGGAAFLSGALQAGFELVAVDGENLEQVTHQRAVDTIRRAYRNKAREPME

GRIP1_3, Q9Y3R0 = molecular target: T8, GRIP1_3, Q9Y3R0
T8 sequence (Q9Y3R0 247-346, limits assumed, looked up): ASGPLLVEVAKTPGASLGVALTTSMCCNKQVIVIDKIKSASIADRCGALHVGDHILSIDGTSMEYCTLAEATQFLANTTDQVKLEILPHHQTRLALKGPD

GIPC2, Q8TF65 = molecular target: GIPC2, Q8TF65
APBA1_2, Q02410 = molecular target: T9, APBA1_2, Q02410
T9 sequence (Q02410 742-832, limits assumed, looked up): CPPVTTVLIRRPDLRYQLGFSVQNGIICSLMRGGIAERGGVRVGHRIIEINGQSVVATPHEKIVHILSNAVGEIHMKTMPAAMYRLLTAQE

PARD3B_1, Q8TEW8 = molecular target: T10, PARD3B_1, Q8TEW8
T10 sequence (Q8TEW8 196-299, limits assumed, looked up): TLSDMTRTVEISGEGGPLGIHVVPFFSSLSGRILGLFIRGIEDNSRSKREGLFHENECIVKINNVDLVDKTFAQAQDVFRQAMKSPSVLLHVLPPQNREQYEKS

NHERF2_2, Q15599 = molecular target: NHERF2_2, Q15599
GRIP1_4, Q9Y3R0 = molecular target: T11, GRIP1_4, Q9Y3R0
T11 sequence (Q9Y3R0 467-571, limits assumed, looked up): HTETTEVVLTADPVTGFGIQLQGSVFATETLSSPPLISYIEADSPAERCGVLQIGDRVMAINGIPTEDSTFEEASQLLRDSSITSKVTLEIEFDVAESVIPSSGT

SHANK1, Q9Y566 = molecular target: T12, SHANK1, Q9Y566
T12 sequence (Q9Y566 658-767, limits assumed, looked up): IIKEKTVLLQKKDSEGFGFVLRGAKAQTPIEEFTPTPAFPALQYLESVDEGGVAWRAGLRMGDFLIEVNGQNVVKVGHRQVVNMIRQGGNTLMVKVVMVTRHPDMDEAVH

FRMPD2_2, Q68DX3 = molecular target: FRMPD2_2, Q68DX3
PCLO, Q9Y6V0 = molecular target: T13, PCLO, Q9Y6V0
T13 sequence (Q9Y6V0 4491-4600, limits assumed, looked up): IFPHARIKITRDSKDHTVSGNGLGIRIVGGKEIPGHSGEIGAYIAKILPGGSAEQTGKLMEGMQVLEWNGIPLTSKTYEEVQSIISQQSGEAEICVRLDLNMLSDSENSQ

[1] = plain residues with an end cap or a label only (N-terminal biotin on a linker: ahx)
[2] = plain residues with an end cap or a label only (N-terminal biotin on a linker: gsgsgs; C-terminal amide)
[3] = plain residues with an end cap or a label only (N-terminal biotin on a linker: ttds)

Inadl_6, Q8NI35, sequence (Q8NI35 1058-1167): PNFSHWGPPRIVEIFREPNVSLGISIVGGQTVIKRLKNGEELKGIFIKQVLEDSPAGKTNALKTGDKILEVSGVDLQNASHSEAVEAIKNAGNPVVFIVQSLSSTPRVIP
NHERF2_2, Q15599, sequence (Q15599 142-238): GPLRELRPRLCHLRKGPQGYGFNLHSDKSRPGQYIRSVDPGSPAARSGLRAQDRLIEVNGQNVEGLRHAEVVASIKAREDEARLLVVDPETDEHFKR
TJP1_2, Q07157, sequence (Q07157 181-274): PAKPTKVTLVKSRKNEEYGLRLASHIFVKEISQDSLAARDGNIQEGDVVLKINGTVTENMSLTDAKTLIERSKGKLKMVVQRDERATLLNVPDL
FRMPD2_3, Q68DX3, sequence (Q68DX3 1073-1166): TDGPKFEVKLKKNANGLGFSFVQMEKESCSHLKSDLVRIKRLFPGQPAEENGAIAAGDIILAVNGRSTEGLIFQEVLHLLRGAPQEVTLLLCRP
DLG1_2, Q12959, sequence (Q12959 314-412): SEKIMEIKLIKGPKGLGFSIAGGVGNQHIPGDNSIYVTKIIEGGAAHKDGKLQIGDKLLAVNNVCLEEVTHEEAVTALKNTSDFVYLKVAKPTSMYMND
FRMPD2_2, Q68DX3, sequence (Q68DX3 944-1038): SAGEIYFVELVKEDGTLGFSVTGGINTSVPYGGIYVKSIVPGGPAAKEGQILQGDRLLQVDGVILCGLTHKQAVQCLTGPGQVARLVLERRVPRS
Inadl_4, Q8NI35, sequence (Q8NI35 547-651): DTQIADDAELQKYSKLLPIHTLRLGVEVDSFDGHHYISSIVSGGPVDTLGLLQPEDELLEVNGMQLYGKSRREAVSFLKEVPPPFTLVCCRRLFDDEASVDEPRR
MAGI2_4, Q86UL8, sequence (Q86UL8 772-865): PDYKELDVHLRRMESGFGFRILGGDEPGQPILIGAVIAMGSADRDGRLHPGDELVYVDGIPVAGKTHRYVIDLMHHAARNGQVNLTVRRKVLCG
GIPC2, Q8TF65, sequence (Q8TF65 112-203): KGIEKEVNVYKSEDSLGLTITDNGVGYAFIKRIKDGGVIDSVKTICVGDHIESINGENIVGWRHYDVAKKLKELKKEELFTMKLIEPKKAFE
CASK, O14936, sequence (O14936 487-570): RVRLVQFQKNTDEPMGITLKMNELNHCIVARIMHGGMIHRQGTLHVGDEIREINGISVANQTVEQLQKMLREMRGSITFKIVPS
LAP2, Q96RT1, sequence (Q96RT1 other isoform, or with tags, fused parts or gaps): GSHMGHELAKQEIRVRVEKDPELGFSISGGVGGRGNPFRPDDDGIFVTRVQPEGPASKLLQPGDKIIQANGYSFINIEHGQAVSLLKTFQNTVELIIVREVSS

B1: PSCDBP, O60759 (peptide)
chain: RAVEEEESRF
TJP1_2, Q07157; [1]
  pKd: below the threshold
MAGI2_4, Q86UL8; [1]
  pKd: below the threshold
CASK, O14936; [1]
  pKd: below the threshold
DFNB31_1, Q9P202; [1]
  pKd: below the threshold
DLG3_2, Q92796; [1]
  pKd: below the threshold
Inadl_6, Q8NI35; [1]
  pKd: below the threshold
APBA3_1, O96018; [1]
  pKd: below the threshold
Inadl_4, Q8NI35; [1]
  pKd: below the threshold
PTPN13_1, Q12923; [1]
  pKd: below the threshold
FRMPD2_3, Q68DX3; [1]
  pKd: below the threshold
MPP6, Q9NZW5; [1]
  pKd: below the threshold
DLG1_2, Q12959; [1]
  pKd: below the threshold
LAP2, Q96RT1; [1]
  pKd: below the threshold
MPDZ_12, O75970; [1]
  pKd: below the threshold
PDZD7_3, Q9H5P4; [1]
  pKd: below the threshold
GRIP1_3, Q9Y3R0; [1]
  pKd: below the threshold
GIPC2, Q8TF65; [1]
  pKd: below the threshold
APBA1_2, Q02410; [1]
  pKd: below the threshold
PARD3B_1, Q8TEW8; [1]
  pKd: 4.06
NHERF2_2, Q15599; [1]
  pKd: 5
GRIP1_4, Q9Y3R0; [1]
  pKd: below the threshold
SHANK1, Q9Y566; [1]
  pKd: 4.77
FRMPD2_2, Q68DX3; [1]
  pKd: below the threshold
PCLO, Q9Y6V0; [1]
  pKd: below the threshold

B2: MLLT4_int, P55196 (peptide)
chain: YGIVQETTFDLGGDIH
TJP1_2, Q07157; [2]
  pKd: below the threshold
MAGI2_4, Q86UL8; [2]
  pKd: below the threshold
CASK, O14936; [2]
  pKd: below the threshold
DFNB31_1, Q9P202; [2]
  pKd: below the threshold
DLG3_2, Q92796; [2]
  pKd: 4.21
Inadl_6, Q8NI35; [2]
  pKd: below the threshold
APBA3_1, O96018; [2]
  pKd: below the threshold
Inadl_4, Q8NI35; [2]
  pKd: below the threshold
PTPN13_1, Q12923; [2]
  pKd: below the threshold
FRMPD2_3, Q68DX3; [2]
  pKd: below the threshold
MPP6, Q9NZW5; [2]
  pKd: below the threshold
DLG1_2, Q12959; [2]
  pKd: 4.06
LAP2, Q96RT1; [2]
  pKd: below the threshold
MPDZ_12, O75970; [2]
  pKd: below the threshold
PDZD7_3, Q9H5P4; [2]
  pKd: 4.9
GRIP1_3, Q9Y3R0; [2]
  pKd: below the threshold
GIPC2, Q8TF65; [2]
  pKd: below the threshold
APBA1_2, Q02410; [2]
  pKd: below the threshold
PARD3B_1, Q8TEW8; [2]
  pKd: below the threshold
NHERF2_2, Q15599; [2]
  pKd: below the threshold
GRIP1_4, Q9Y3R0; [2]
  pKd: below the threshold
SHANK1, Q9Y566; [2]
  pKd: below the threshold
FRMPD2_2, Q68DX3; [2]
  pKd: below the threshold
PCLO, Q9Y6V0; [2]
  pKd: below the threshold

B3: HPV49-L2, P36762 (peptide)
chain: RRRKRKRTYL
TJP1_2, Q07157; [1]
  pKd: 3.49
MAGI2_4, Q86UL8; [1]
  pKd: below the threshold
CASK, O14936; [1]
  pKd: below the threshold
DFNB31_1, Q9P202; [1]
  pKd: 3.58
DLG3_2, Q92796; [1]
  pKd: below the threshold
Inadl_6, Q8NI35; [1]
  pKd: below the threshold
APBA3_1, O96018; [1]
  pKd: below the threshold
Inadl_4, Q8NI35; [1]
  pKd: below the threshold
PTPN13_1, Q12923; [1]
  pKd: below the threshold
FRMPD2_3, Q68DX3; [1]
  pKd: below the threshold
MPP6, Q9NZW5; [1]
  pKd: below the threshold
DLG1_2, Q12959; [1]
  pKd: 3.82
LAP2, Q96RT1; [1]
  pKd: below the threshold
MPDZ_12, O75970; [1]
  pKd: below the threshold
PDZD7_3, Q9H5P4; [1]
  pKd: 4.31
GRIP1_3, Q9Y3R0; [1]
  pKd: below the threshold
GIPC2, Q8TF65; [1]
  pKd: below the threshold
APBA1_2, Q02410; [1]
  pKd: 3.98
PARD3B_1, Q8TEW8; [1]
  pKd: 3.72
NHERF2_2, Q15599; [1]
  pKd: 3.49
GRIP1_4, Q9Y3R0; [1]
  pKd: 4.04
SHANK1, Q9Y566; [1]
  pKd: 4.32
FRMPD2_2, Q68DX3; [1]
  pKd: below the threshold
PCLO, Q9Y6V0; [1]
  pKd: below the threshold

B4: DOCK4, Q8N1I0 (peptide)
chain: RPLPRKVSQL
TJP1_2, Q07157; [3]
  pKd: below the threshold
MAGI2_4, Q86UL8; [3]
  pKd: below the threshold
CASK, O14936; [3]
  pKd: below the threshold
DFNB31_1, Q9P202; [3]
  pKd: below the threshold
DLG3_2, Q92796; [3]
  pKd: below the threshold
Inadl_6, Q8NI35; [3]
  pKd: below the threshold
APBA3_1, O96018; [3]
  pKd: below the threshold
Inadl_4, Q8NI35; [3]
  pKd: below the threshold
PTPN13_1, Q12923; [3]
  pKd: below the threshold
FRMPD2_3, Q68DX3; [3]
  pKd: below the threshold
MPP6, Q9NZW5; [3]
  pKd: below the threshold
DLG1_2, Q12959; [3]
  pKd: 3.94
LAP2, Q96RT1; [3]
  pKd: 3.73
MPDZ_12, O75970; [3]
  pKd: below the threshold
PDZD7_3, Q9H5P4; [3]
  pKd: 4.5
GRIP1_3, Q9Y3R0; [3]
  pKd: below the threshold
GIPC2, Q8TF65; [3]
  pKd: below the threshold
APBA1_2, Q02410; [3]
  pKd: 3.97
PARD3B_1, Q8TEW8; [3]
  pKd: below the threshold
NHERF2_2, Q15599; [3]
  pKd: below the threshold
GRIP1_4, Q9Y3R0; [3]
  pKd: below the threshold
SHANK1, Q9Y566; [3]
  pKd: below the threshold
FRMPD2_2, Q68DX3; [3]
  pKd: below the threshold
PCLO, Q9Y6V0; [3]
  pKd: below the threshold

B5: SLC2A1, P11166 (peptide)
chain: FHPLGADSQV
TJP1_2, Q07157; [3]
  pKd: below the threshold
MAGI2_4, Q86UL8; [3]
  pKd: below the threshold
CASK, O14936; [3]
  pKd: below the threshold
DFNB31_1, Q9P202; [3]
  pKd: below the threshold
DLG3_2, Q92796; [3]
  pKd: 4.03
Inadl_6, Q8NI35; [3]
  pKd: below the threshold
APBA3_1, O96018; [3]
  pKd: below the threshold
Inadl_4, Q8NI35; [3]
  pKd: below the threshold
PTPN13_1, Q12923; [3]
  pKd: below the threshold
FRMPD2_3, Q68DX3; [3]
  pKd: below the threshold
MPP6, Q9NZW5; [3]
  pKd: below the threshold
DLG1_2, Q12959; [3]
  pKd: 3.88
LAP2, Q96RT1; [3]
  pKd: 3.48
MPDZ_12, O75970; [3]
  pKd: below the threshold
PDZD7_3, Q9H5P4; [3]
  pKd: below the threshold
GRIP1_3, Q9Y3R0; [3]
  pKd: below the threshold
GIPC2, Q8TF65; [3]
  pKd: 3.5
APBA1_2, Q02410; [3]
  pKd: below the threshold
PARD3B_1, Q8TEW8; [3]
  pKd: below the threshold
NHERF2_2, Q15599; [3]
  pKd: below the threshold
GRIP1_4, Q9Y3R0; [3]
  pKd: below the threshold
SHANK1, Q9Y566; [3]
  pKd: below the threshold
FRMPD2_2, Q68DX3; [3]
  pKd: below the threshold
PCLO, Q9Y6V0; [3]
  pKd: below the threshold
